{
  "source": "paper PMC11134719",
  "key": {"[1]": {"molecular_target": "angiotensin-converting enzyme 2 (ACE2) (human (endogenous in HUVECs and HMEC-1)) (UniProt Q9BYF1)", "sequence (Q9BYF1 18-805)": "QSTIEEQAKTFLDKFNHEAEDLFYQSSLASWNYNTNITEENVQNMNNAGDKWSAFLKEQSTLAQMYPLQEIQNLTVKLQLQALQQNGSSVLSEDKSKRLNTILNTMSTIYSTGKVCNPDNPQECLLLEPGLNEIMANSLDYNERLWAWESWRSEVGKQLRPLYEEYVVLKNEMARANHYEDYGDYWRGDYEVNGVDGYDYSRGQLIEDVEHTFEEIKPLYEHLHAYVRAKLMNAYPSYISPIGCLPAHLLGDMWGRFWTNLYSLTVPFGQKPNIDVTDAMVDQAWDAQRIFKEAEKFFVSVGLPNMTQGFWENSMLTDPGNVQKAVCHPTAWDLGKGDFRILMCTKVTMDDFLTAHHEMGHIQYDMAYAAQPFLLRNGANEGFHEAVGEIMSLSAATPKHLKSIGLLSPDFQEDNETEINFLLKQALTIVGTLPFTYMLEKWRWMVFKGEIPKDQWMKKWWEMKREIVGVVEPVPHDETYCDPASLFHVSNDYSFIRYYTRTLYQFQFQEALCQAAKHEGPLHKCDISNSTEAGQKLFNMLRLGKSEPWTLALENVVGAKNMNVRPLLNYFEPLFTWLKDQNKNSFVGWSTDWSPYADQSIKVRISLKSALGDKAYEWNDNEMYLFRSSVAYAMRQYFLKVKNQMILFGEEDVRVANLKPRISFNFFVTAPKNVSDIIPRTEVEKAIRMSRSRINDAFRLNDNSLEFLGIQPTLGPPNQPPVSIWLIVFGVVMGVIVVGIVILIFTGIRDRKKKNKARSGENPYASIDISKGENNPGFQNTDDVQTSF"}, "[2]": {"molecular_target": "Toll-like receptor 4 (TLR4) (human (endogenous in HUVECs and HMEC-1)) (UniProt O00206)", "sequence (O00206 24-839)": "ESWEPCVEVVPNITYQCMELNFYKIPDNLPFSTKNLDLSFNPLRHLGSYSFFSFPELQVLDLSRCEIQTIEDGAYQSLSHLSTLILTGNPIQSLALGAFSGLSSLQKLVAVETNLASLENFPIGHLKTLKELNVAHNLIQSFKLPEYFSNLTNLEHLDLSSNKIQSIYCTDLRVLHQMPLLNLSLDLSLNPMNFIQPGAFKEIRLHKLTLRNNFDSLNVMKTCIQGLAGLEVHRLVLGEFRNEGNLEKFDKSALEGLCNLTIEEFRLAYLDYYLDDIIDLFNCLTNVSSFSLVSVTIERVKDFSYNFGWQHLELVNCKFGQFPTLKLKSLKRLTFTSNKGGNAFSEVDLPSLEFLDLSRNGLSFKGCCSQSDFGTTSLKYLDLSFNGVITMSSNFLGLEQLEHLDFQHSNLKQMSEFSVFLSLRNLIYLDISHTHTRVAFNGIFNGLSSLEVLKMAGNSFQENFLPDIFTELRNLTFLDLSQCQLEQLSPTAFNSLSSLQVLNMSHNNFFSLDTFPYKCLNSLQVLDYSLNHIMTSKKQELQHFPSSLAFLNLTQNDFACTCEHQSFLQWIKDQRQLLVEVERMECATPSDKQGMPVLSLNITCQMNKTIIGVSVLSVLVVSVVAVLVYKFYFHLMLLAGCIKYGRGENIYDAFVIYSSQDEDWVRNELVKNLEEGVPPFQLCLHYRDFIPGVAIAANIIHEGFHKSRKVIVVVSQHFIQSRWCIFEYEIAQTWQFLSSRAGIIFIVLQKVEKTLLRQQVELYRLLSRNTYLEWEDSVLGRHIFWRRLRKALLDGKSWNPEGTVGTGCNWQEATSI"}},
  "data": [
    {"substance": "2019-nCoV S1 Protein (SARS-CoV-2 Spike protein) (domain or fragment)", "values": [
      {"measurement": "decrease of the ACE2 surface protein level (Western blot of the cell surface fraction), 0.5 µg/mL S protein for 48 h", "setting": "[1]", "value": 60, "unit": "%"},
      {"measurement": "TLR4 surface protein level by Western blot, fold over nontreated endothelial cells, 0.5 µg/mL S protein for 48 h", "setting": "[2]", "value": 1.7, "unit": "fold"},
      {"measurement": "TLR4 surface protein level by immunostaining, fold over nontreated endothelial cells, 0.5 µg/mL S protein for 48 h", "setting": "[2]", "value": 1.4, "unit": "fold"}
    ]}
  ]
}
